Among the data in US6117653 are E492 values, retold here.

Common to all, as to assay: ELISA of pooled CsCl fractions 9-15 of the purified particle
The target of experiment [1] is purified HBs antigen particle produced from an HBV sequence construct including the pre-S1 region with total deletion of pre-S2 and deletions upstream of the pre-S2 ATG and the S region with deletion of the S ATG (e.g., the construct of FIG. 6B) (Hepatitis B virus (subtype not stated for the construct); Hepatitis B virus (subtype not stated)).
Experiment [2] concerns the target purified HBs antigen particle produced from an HBV sequence construct including the pre-S1 region with total deletion of pre-S2 and deletions upstream of the pre-S2 ATG and the S region with deletion of the S ATG and downstream the S ATG through the XBaI site (e.g. the construct of FIG. 1A) (Hepatitis B virus (subtype not stated for the construct); Hepatitis B virus (subtype not stated)).

The target of experiment [3] is purified HBs antigen particle produced from an HBV sequence construct including the pre-S2 region with none of the pre-S1 region and deletions upstream of the S ATG and downstream of the S ATG through the XBaI site, and the S region with deletion of the S ATG (e.g. the construct of FIG. 2A) (Hepatitis B virus (subtype not stated for the construct); Hepatitis B virus (subtype not stated)).

Experiment [4] concerns the target purified HBs antigen particle produced from an HBV sequence construct including the pre-S2 region with none of the pre-S1 region and deletions upstream of the S ATG and the S region with deletion of the S ATG (e.g., the construct of FIG. 7B) (Hepatitis B virus (subtype not stated for the construct); Hepatitis B virus (subtype not stated)).
For experiment [5], the target named is purified HBs antigen particles produced by construct including the entire pre-S1-pre-S2-S region under control of the LTR region of rous sarcoma virus, with additional cotransfection with S (FIG. 13) (Hepatitis B virus (subtype not stated)).

As for anti-pre-S1 monoclonal antibody MA 18/7, the E492 stood at 1.27 in experiment [1]; 0.839 in experiment [2]; 0 in experiment [3]; 0 in experiment [4]; 0.125 in experiment [5].
